According to US20230192796A1 (published 2023):

Molecular target: T1, Human IL-10Rβ on cells (Daudi, Jurkat, YT-1, THP-1 cell lines; primary human PBMC populations) (human, UniProt Q08334 20-325)
T1 sequence (looked up): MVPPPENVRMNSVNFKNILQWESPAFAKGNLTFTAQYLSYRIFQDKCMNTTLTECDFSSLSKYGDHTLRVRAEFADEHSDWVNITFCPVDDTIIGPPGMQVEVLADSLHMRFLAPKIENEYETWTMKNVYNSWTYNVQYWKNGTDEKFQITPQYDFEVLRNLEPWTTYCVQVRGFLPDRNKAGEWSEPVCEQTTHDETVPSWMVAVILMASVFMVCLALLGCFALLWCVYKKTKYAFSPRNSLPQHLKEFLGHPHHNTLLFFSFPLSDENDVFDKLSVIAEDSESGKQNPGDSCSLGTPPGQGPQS
Assay: cell-based or functional assay

B1: Affinity matured IL-10 clone 5.1 (Super-10), soluble (ligand)
chain: SPGQGTQSENSCTHFPGYLPNMLRDLRDAFSRVKTFFQMKDQLDNLLLKESLLEDFKGYLGCQALSEMIQFYLEEVMPQAENQDPDIKAHVQSLGENLKDLRLWLRRCHRFLPCENKSKAVEQVKNAFNKLQEKGIYKAMSEFDIFINYIEAYMTMKIRNHHHHHH
  ratio of super-10 to 10-DE STAT3 Emax in Daudi cells: > 20 ratio (super-10:10-DE)
  ratio of super-10 to 10-DE STAT3 Emax in THP-1 cells: ~1 ratio (super-10:10-DE)
